Measurements taken from publication PMC3175028 (2011).

Columns and labels:
[1] = biological target: T1, hedKR (Streptomyces griseoruber, UniProt Q67G28); assay: steady-state kinetics of reduction; assay type: biochemical
[2] = biological target: T1, hedKR; assay: […] Å co-crystal structure; assay type: binding
[3] = biological target: T1, hedKR; assay: steady-state inhibition kinetics of trans-1-decalone reduction; assay type: biochemical
[4] = tested on: O[C@H]1CCCc2ccccc21; assay: steady-state kinetics of oxidation, A340; assay type: biochemical, Streptomyces griseoruber; details: NADP+

Compound	Km [4] [µM]	kcat [4] [s⁻¹]	kcat/Km [4] [M⁻¹ s⁻¹]	also measured
O=C1CCC[C@H]2CCCC[C@H]12 (relative stereo) [trans-1-decalone]	–	–	–	Km [1]: 591 ± 147 µM
NC(=O)C1=CN([C@@H]2O[C@H](COP(=O)(O)OP(=O)(O)OC[C@H]3O[C@@H](n4cnc5c(N)ncnc54)[C@H](OP(=O)(O)O)[C@@H]3O)[C@@H](O)[C@H]2O)C=CC1 [NADPH]	–	–	–	2.4 Å co-crystal structure [2]: There is clear electron density for NADPH in each monomer of the crystal structure.
O=c1c(O)c(-c2ccc(O)c(O)c2)oc2cc(O)cc(O)c12 [compound 22, quercetin]	–	–	–	Ki [3]: ~114 µM
hedKR (Streptomyces griseoruber; N92L)	4320 ± 521	0.169 ± 0.00653	39.1 ± 4.96	–
hedKR (Streptomyces griseoruber; N92P)	14100 ± 1360	0.0323 ± 0.00166	2.29 ± 0.249	–
